The series concerns the target T1, RB69 DNA polymerase exo- (RB69pol) (Enterobacteria phage RB69, UniProt Q38087 1-903, D222A;D327A).
T1 sequence: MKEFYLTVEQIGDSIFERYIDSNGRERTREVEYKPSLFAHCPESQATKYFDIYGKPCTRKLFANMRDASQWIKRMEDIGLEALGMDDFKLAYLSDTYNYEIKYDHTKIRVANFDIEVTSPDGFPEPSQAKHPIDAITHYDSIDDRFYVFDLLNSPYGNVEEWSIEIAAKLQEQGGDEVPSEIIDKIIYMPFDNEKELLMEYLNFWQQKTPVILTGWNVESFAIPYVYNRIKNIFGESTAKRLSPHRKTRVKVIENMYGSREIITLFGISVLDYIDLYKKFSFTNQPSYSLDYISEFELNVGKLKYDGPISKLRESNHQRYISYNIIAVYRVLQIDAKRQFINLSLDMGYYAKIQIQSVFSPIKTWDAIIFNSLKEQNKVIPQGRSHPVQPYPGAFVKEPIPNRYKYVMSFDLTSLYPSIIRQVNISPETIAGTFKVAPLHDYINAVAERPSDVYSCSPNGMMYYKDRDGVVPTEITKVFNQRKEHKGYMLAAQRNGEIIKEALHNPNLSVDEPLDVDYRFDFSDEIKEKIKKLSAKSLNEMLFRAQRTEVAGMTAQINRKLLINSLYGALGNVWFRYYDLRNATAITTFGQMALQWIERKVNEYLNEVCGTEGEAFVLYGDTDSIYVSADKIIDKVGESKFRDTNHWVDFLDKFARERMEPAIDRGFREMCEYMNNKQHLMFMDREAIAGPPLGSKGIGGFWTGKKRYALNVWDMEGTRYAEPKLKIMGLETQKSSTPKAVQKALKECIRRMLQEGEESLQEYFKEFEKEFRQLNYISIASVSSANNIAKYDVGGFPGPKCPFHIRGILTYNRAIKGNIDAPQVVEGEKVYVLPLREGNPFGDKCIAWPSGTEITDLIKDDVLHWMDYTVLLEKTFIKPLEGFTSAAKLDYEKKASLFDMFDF
The experiment in a line: X-ray crystallography (2.2 A); MolA: closed ternary complex with dUpNpp, single Ca2+ at B site; rGMP in NTD; Complex (1:1.2 protein:DNA) in 10 mM Tris-HCl pH 8.0, 50 mM NaCl, 10 mM CaCl2, 5 mM DTT, 5% glycerol, 1 mM dUpNpp, 12 h 4 C; crystals at 21 C in 50 mM Na cacodylate pH 5.0, 2-7% isopropanol, 5 mM MgCl2, 2 mM NaCl, 12 mM spermine. The following applies: protein: recombinant; tags: N-terminal His6 removed with TEV protease; 15 bp; 5' overhang 1 nt on primer, 5' overhang 4 nt on template; 1:1.

The source of these data is paper PMC8639217, “Structure of New Binary and Ternary DNA Polymerase Complexes From Bacteriophage RB69”.

B1: primer/template (P/T) duplex (dsDNA)
DNA 1: GGAGCGGACTGCTTAC
DNA 2: TCAAGTAAGCAGTCCGCTC
As for B1, the binding result was “binds”.
